{
  "source": "FireProtDB",
  "proteins": {"B1": {"name": "Tryptophan synthase alpha chain wild type, P00929 (protein)", "chain": "MERYENLFAQLNDRREGAFVPFVTLGDPGIEQSLKIIDTLIDAGADALELGVPFSDPLADGPTIQNANLRAFAAGVTPAQCFEMLALIREKHPTIPIGLLMYANLVFNNGIDAFYARCEQVGVDSVLVADVPVEESAPFRQAALRHNIAPIFICPPNADDDLLRQVASYGRGYTYLLSRSGVTGAENRGALPLHHLIEKLKEYHAAPALQGFGISSPEQVSAAVRAGAAGAISGSAIVKIIEKNLASPKQMLAELRSFVSAMKAASRA"}, "B2": {"name": "Formate dehydrogenase wild type, O13437 (protein)", "chain": "MKIVLVLYDAGKHAADEEKLYGCTENKLGIANWLKDQGHELITTSDKEGETSELDKHIPDADIIITTPFHPAYITKERLDKAKNLKLVVVAGVGSDHIDLDYINQTGKKISVLEVTGSNVVSVAEHVVMTMLVLVRNFVPAHEQIINHDWEVAAIAKDAYDIEGKTIATIGAGRIGYRVLERLLPFNPKELLYYDYQALPKEAEEKVGARRVENIEELVAQADIVTVNAPLHAGTKGLINKELLSKFKKGAWLVNTARGAICVAEDVAAALESGQLRGYGGDVWFPQPAPKDHPWRDMRNKYGAGNAMTPHYSGTTLDAQTRYAEGTKNILESFFTGKFDYRPQDIILLNGEYVTKAYGKHDKK"}, "B3": {"name": "FMN-dependent NADH:quinone oxidoreductase 1 wild type, Q88IY3 (protein)", "chain": "MKLLHIDSSILGDNSASRQLSREVVEAWKAADPSVEVVYRDLAADAIAHFSAATLVAAGTPEDVRDAAQAFEAKLSAETLEEFLAADAVVIGAPMYNFTVPTQLKAWIDRVAVAGKTFRYTEAGPQGLCGNKKVVLVSTAGGLHAGQPTGAGHEDFLKVFLGFIGITDLEIVRAHGLAYGPEQRSQAIDAAQAQIASELFAAA"}, "B4": {"name": "Alpha-lactalbumin wild type, P00711 (protein)", "chain": "MMSFVSLLLVGILFHATQAEQLTKCEVFRELKDLKGYGGVSLPEWVCTTFHTSGYDTQAIVQNNDSTEYGLFQINNKIWCKDDQNPHSSNICNISCDKFLDDDLTDDIMCVKKILDKVGINYWLAHKALCSEKLDQWLCEKL"}, "B5": {"name": "Bacteriorhodopsin wild type, P02945 (protein)", "chain": "MLELLPTAVEGVSQAQITGRPEWIWLALGTALMGLGTLYFLVKGMGVSDPDAKKFYAITTLVPAIAFTMYLSMLLGYGLTMVPFGGEQNPIYWARYADWLFTTPLLLLDLALLVDADQGTILALVGADGIMIGTGLVGALTKVYSYRFVWWAISTAAMLYILYVLFFGFTSKAESMRPEVASTFKVLRNVTVVLWSAYPVVWLIGSEGAGIVPLNIETLLFMVLDVSAKVGFGLILLRSRAIFGEAEAPEPSAGDGAAATSD"}, "B6": {"name": "wild type, Q72LK2 (protein)", "chain": "MEATLPVLDAKTAALKRRSIRRYRKDPVPEGLLREILEAALRAPSAWNLQPWRIVVVRDPATKRALREAAFGQAHVEEAPVVLVLYADLEDALAHLDEVIHPGVQGERREAQKQAIQRAFAAMGQEARKAWASGQSYILLGYLLLLLEAYGLGSVPMLGFDPERVKAILGLPSHAAIPALVALGYPAEEGYPSHRLPLERVVLWR"}},
  "conditions": "whole UniProt chain shown",
  "key": {"[1]": {"conditions": "Salmonella typhimurium (strain LT2 / SGSC1412 / ATCC 700720), pH 9.01, Thermal, DSC, sodium tetraborate 1 mM"}, "[2]": {"conditions": "Halobacterium salinarum (strain ATCC 700922 / JCM 11081 / NRC-1), pH 7, Thermal, DSC, phosphate 0.1 M"}},
  "note": "Where “and” joins values, the source holds several entries; their conditions need not be identical. Equal values may be shown once.",
  "data": [
    {"protein": "B1", "values": [
      {"measurement": "Tm", "setting": "[1]", "value": 46.2, "unit": "°C"},
      {"measurement": "unfolding enthalpy (van 't Hoff)", "setting": "[1]", "value": 3.68, "unit": "kcal/mol"}
    ]},
    {"protein": "B2", "values": [
      {"measurement": "Tm", "setting": "Candida boidinii", "value": 59, "unit": "°C"}
    ]},
    {"protein": "B3", "values": [
      {"measurement": "Tm", "setting": "Pseudomonas putida (strain ATCC 47054 / DSM 6125 / CFBP 8728 / NCIMB 11950 / KT2440), Fluorescence spectroscopy", "value": 47, "unit": "°C"}
    ]},
    {"protein": "B4", "values": [
      {"measurement": "Tm", "setting": "Bos taurus, pH 6, Thermal, DSC, Unknown", "value": 59, "unit": "°C"}
    ]},
    {"protein": "B5", "values": [
      {"measurement": "unfolding enthalpy (calorimetric)", "setting": "[2]", "value": "50 kcal/mol and 86 kcal/mol and 104 kcal/mol"},
      {"measurement": "unfolding enthalpy (van 't Hoff)", "setting": "[2]", "value": "71 kcal/mol and 125 kcal/mol and 155 kcal/mol"}
    ]},
    {"protein": "B6", "values": [
      {"measurement": "Tm", "setting": "Thermus thermophilus (strain ATCC BAA-163 / DSM 7039 / HB27)", "value": 30, "unit": "°C"}
    ]}
  ]
}
